# Test results taken from the DeepSol protein solubility set.
# Assay: soluble on expression in E. coli; label from the status in PepcDB or PDB records
row,Sequence,soluble on expression in E. coli
1,MAHHHHHHMAPVIPKSSNEGKDYSVASGSVDTPVLDQLVGYYVNIQSRKMYYKDFLRIEHQAVRWAFADIRKNSEALAHGLLQTGLRPGQRVLAIQPCNCETFVLQLACAKIGALLAVVPHHNISADKLRFYLNEFQPHHLIAREWIVVPEVKQGVLVERNMHFWDMIYNVIPELGLSYPGQRFQWVHSQEFFFLKKVVITDHNMNLLGVTPMRKMLVWGPFSYYEQRLRRLSALLHPDDPILALEDPHPALEDKLHITYSHRNCINAGFLFGNLMGLKAESRFGVMPNHHVDPVGAIVAPYAALTTGAVLVHIHSDMFTDDHAINGIEKLCVEEVVGMLGKKSDFDLLLRHAGNFDADQYEHLKWVVLFEDASEPTVGDEYLQKLAKELGLEDVFVFRGPLESAYMVMWRSLKRARWEMVPHVEAKVVGDRGTADARILAANTRGNLKLKGPHISAGYYNNAGLLTELVDERGFCSTSREAVMDERGQLTLHGTQLY,not soluble
2,MAHHHHHHMAQASGCELMDFVSVLPVPPQTERRRGVLRFVGSTDFAPGLWMGIELFGTIGRNDGSVMGKSYFSCPAGQGVFVRPELVVPYMSEGEGPSGTVRKGDEFLAVVEPLRADLTRMQEELQQREAALRDAREELRNVMALHDAKSVELEREREEKSRMIMLTMTACRNNVTATTQTDEDKAVEVKDLEIHRLQQQCADLRDLCELQEDEIHRQREHADDLAQIVENLRREHEEERVRMVEKIRSLEEEITQRQKATAEDSAKADVEDMHLHAFQQQQEKEALRILKERYEQLYAERESERHEQEAKWKRATAEYEEALTQQREYKNRLLNEIRQLQHEIKDMRHSRERERVLQVPLSTLERDEYESQIYGLQWELMGVHEEMFSKRYDHFLAPVSSWNLPADVMRALSEEIMSLERVLPFTTPEKCQQSRMVLFQMHPRDAEGGTIAAAPL,not soluble
3,MAHHHHHHMARLKVLNVAEKPSVASSIAEILSKGRPNKIKSCSKYNPVFTFDYKIKNDIWYMYVTSVTGHLTDQKFDDRYKNWHNTDPQELFDAEITVYVEKDKKNIENNLKKYSKECNMLILWLDCDREGEHICFEVINACRITNRKLIIHRAQFSAVTEKDIIHAINNLKEPNKNLAYSVDVRREIDLRMGSIFTRFMTIRYIELVKHETSIISYGPCQFPTLGFVVNRYLDIKNFKNEYYWSIKMKYVYNNDEINPMDDENNYDDHDDEQMDSDSDESDSYYTNNDDSNNYSDETDDYYGD,not soluble
4,MAHHHHHHMASSALDEMKEQMLRRWKEDQKKIDDLRKKHGHEKLCDATIDAVYGGMRGITGLVYEPSLLDPAEGIRFRGLTILECQEMLPKAPGGKEPLPEAMFWLLMTGEVPTEEQVRGLNAELHRRADPEAIAAAQKAIAALPRNAHPMTAFSVGVLALQSYSKFAAAYAAGKSNKKTYWEYALEDSLDMLARTPAVVAMICNRETKGQVELAAPSNSDLDWAANFAKMMGYQDEEFWECMRLYLSVHADHEGGNVSAHTTTLVASALSDPYLAFSAGLNGLAGPLHGLANQEVLNYLLSMQERVKADGVNMHDEAALEKALSNYTWELLNSGQVVPGYGHAVLRKVDPRYTCLRNFCLRHKFDDDLFKLVNTIYLIMPGILKEHGKTKNPYPNVDAHSGVLLQHYGMTNQNCYPVLFGLSRQMGVLAGVVWDRLQGRPLERPKSITTEMLAKKYLCNSL,not soluble
5,MAHHHHHHMAVSSARESVTDLLSGREDVRTVSSSTMAQESTTIKTGELGEDGGGDGVISDRSNVLARVFEELLDAEVSMNPAKLREASRAGIPSLYRSTVYRYLLGITFVDHSREMSLERMQEKDFEQLLTAFGRIVASDGTGQRPSVKGRIMQPLASPRLHDSETIPLITRDESQFANGYRCSDRSFSVGYAAWIKFRANLRYLPRFVGNPERRQRMECAWQALHVTSSGATPDEVENLFELALVFESVHGTARDIYFSTSSLYYLLTHHGNVLQNAQCLQRMCGTFLMLFRATNFDLYRHFVAESVTAVEWLPGMLKTLLAGRLHEEDLLRLWDVYLADALEYLGFPLHPYVCLAILEEMTEVLLECEKSGIIERLRHLPRIEAGSIIQKAISLKESVFSKDLL,not soluble
6,MAHHHHHHMCAKESCRAVNQGIRKECESCGTEKPQLLGWKCEGCSTINHAGVRKCKKCADASDKSKEFWMCAVCHENNRVDEIEDNSRCGFCGYDMAPHSVAEEEILRRATEKTVMLQQQQEHFDSVSYTEADEQFTNPLEGAEALDPSLRAIHPGSEAPITGRVLKLPAVAPFVAGGVPETRHSPLHQRRKVHPALQTVLEGATAPEGPPGFDWMCRDSSCGHINPGDEESCLKCGSHITPAEWEVPVMRVLEPPGTLALLLLQKPHSGLLDLQCVSGDDEHL,not soluble
7,MAHHHHHHMCPPKNENERGTEGQPAKNTESADTLKRKLSELYAEEGCQYGENGQPEDTSHLVSSGSAGKKRETATEKRNPEEVREKENAHEKKEDNEVDQNGQTSTSKTNTKKHRSSTDEPPNRRKKKKRKKKFNDNGEVTKPSKQMIRINYLLQASFLMNELNPNISREYIKTMRKLSNKFLIKHDKKFKKLFCKKCNSVLIPSATCKVSVNPLNLRKKKKNKNEEVSSNLNGKLRDEFLVSYRCNYCQHDTKFVYENGLTAPRANGTEAV,soluble
8,MAHHHHHHMCTTNLENLVVDSVTRTGNNNASNTFLGDVLLASNKESQNITQYHPGVSSKDQPDVCGDVRYSFADIADIIRGTDVWSKQSQQMLLQGYLEQTFGKIKDKFKGTEKYDSDSHHPQIL,not soluble
9,MAHHHHHHMDPKEFVQRFPKSALSAKLVLSLEITEQRDFVVSLIDDAVYCDSWEAYFDFAERNNVAITEDVALAAVQAVGLDPLSAPLWVRAAACCESVESRKSLYEFGLSVPLHGWQRLFEEYRRCTDGHEDDHVLSETECWCVSNVLTAEKWPDRYAKLDTDTEAENVRQAWLELFACMLAGLASTAIARDLQLRRMELAMRQMCTQLPGDDSCWYQLALFQLCILEDAEAARKTVACGIAAAGSSFALENIASVADGVVGVSDSSGTSSADVLSATKALMQQRRAAEELALDGVTKDRVRALRSVGKAAAQQGLGDWKIFSQWRCAEDMAAHDTKMAAKVLENGMICCSHSPADALLLGSEAAQYHLLQRHEREALGYAEQQIEQQAELHHRGKILASWNSLVRIENLLGLSFSKAAKRRAELFPQNRISTFMENCRVGDYLPCDKSTFQWARFVEDYQVDKASVEETPFHGIAPPRNEAVAVKRLQQVECETPDDSQWEPFVPPLSCLPSREEENPDDVTGVRELRGKLVYRVKMDARTAARCQREKATRQRSMTGEKAVERGGALGALVRRVRPVNLTVGQTKRLQSVSADWVVHVLTVSELDLERTLKERAERQESHDMSV,not soluble
10,MAHHHHHHMDPNAFLSSFDAIVTLSNTEGPRHNVLEPKFTAREQMQALRESVRNAYKESPSQTAMSQICRCYVFIGFNMLETDEETEGVSEICKAYTLTLFGSKKELLDDVVDIAAHPLEEILRNEVPFVTAEKEYAFVTEFMRVHNALGFYFSNRDVELRINDAKQVLIVAEKAYRAWNDWFHQSFPGHCLMKDIPVLENGTLDRASISPDALPIYIVRFEMDTAFTSTLFFLAQVYTACKMTALASRYCHHTLYHQLLNKMEFSKKDWATNALHLSAFYSSCFDYGKALHCLRAGEYIMPEENANEETLGIVAWAFGKFYLHRLHYYSEVRRNCAPRGHFPDEFEGWWVDFPLDIPPPQPLPAIETFEDARKCFKEANVWFNKALNYYVYDGCCTEHIDIKKDIAQLYAALIPFEENRDRIIAMHQRRIALIELFPSDLNFNAYPTLVRQLLFDLGGMHEEMLEVYIQQKNSPMEGEKPLSDKKINAFADKVQGFYRRFCDTWKEPQTNKIPETIDIDSRLPFFRSLMRLAHLQMKRFFKDPKEEYDNISASIVMFEKAIAFASSNPMNEEADAEVQLAREMATLLPVRQKDLWRVYHNAV,not soluble
11,MAHHHHHHMDQSRHKRTARHQYLGARTKITLKLQLTRIQHRGFHVHVHSRTTPLDRQAHEDALQQRDVECLLWRVKMQQIQQNRSGEGHVDKAQTTHTGIRIVHGADPATVNAAGLRVLRIGERERPKTVRNRSWQTRVTVAASSTHALTAADAARPRSEAHGVHSARATVQHRHGRPNIEVDSVIRHRRAS,not soluble
12,MAHHHHHHMDTHALLALAQSAVDAGNVKAACEFYEVALAQSPNNDEVLEAYAEVMIHYAQDIPRAQQMLRHAIDINPNQGYVKYLNLAQLCEAEEALKCYEKAYEIASLMLHGCRKKKMKKTLQETMATMCCAVAELYLTDLCFAENAEQQCEQAVNRALELNSDLVEPHQLQASLRLSQCRPDEALQSLRRAVDATHRLGEEHQPTYESKIELGRLLMQVDPAEAFQFLLEVLQYGDNNPYVWFLLGESARMRRRYADAARLLRRARVMLVVSGGDATALSEVDAAINVLVQEMGGPEEAAQVKDLDHPYPLELLEAEDDEGAEEDGEDDLEEPEREPCDDEDDA,not soluble
13,MAHHHHHHMDYEEPGQATRELTTFVQGLLQNMQTRFQEMSDTIITRIDEMGTRIDDLEKNIAELMQQAGPDEEAAQTASAPKDKKKSKGK,soluble
14,MAHHHHHHMEAVFYAFASFGTAPTKEMDNAHFSKMLKEAKIIGKTFTSTDADLLFNKIKAKGARKITFTEFNTRALPDIATKLKMTPEQVAEILTKASPASNSTKAEAVKFHDDKNLYTGVYKAGGPTNVDRNAGSLSGVVDRRVDQVDVRGTTSSQK,soluble
15,MAHHHHHHMEDEKVGTANNDEKVTMSMPEEYMPKNISEILIGAVEEDRTYALKGDEPCDSYIKLGEIVHGTNEKTTQFTFPKNKVLCVQLEAINGNGYLWALLGVHKEKPQINPEEFPRKKITKSFFTNEISVTQPKAIQKNTSNNGGDISPNSSGYGKPRGSEHLGGFVGGASTLQSMVKAHKAGTFYIVYSYYRPFDPTASANTKILQLTVS,soluble
16,MAHHHHHHMEDTINVFGRGTPAGEAIYRCYVAPSKPSTLDPQLAALLARRRQEREAAEAAQAHPKPIPKSKAPVHRPRVGMGKRPTEEEYARWRLQHIPHRRSKAAIEAEEEAHRWVPPPVSERFARPAITDAEKDRLADVMAYGAELPKPKEFTGVQRARFHRLEPRAELEDRFTKLRQTAQEVQSELAQLRQSAPGAGASLPSGGRVVESVSDPQARLSQRRSCGGGGDPATASPCPLASAASPGAAAARDVLSIGGTRVGRQGDSKMSTIERCRQERELQSHLGTVIAEMEAVDRELNRLPISS,soluble
17,MAHHHHHHMEEGDQATDAAETSALAANTLTREEQPDERSKNEVTLLEIKRKVQNEKEAQKDDNKQRKFKIINYTSKDSLVSKVEKEFFLFFCFLCGFNCLISETDVADLPRRKTDGSIIFPFKKIVHKKYYKTKKECILIRRREDALEVQFRILCKECGVPIGYVNSLADDNAYVYYYDYSFVRSQTKSRLFKDVSL,not soluble
18,MAHHHHHHMEEGGRYAACKAELYKLQEKIKTQETPRDNCAEKEKMWEKQRSELEQEKDECLRTSDAHRTQKQDLEDRVRYMDGLTRAMISEKRFAEERRNISEKENEDLKTRVRVLTHKLGVLTAMVQKLHISHMIKDMGIAMLQAEAKQAAEEMETNHKKDVAAAEERVLQECKEKFCFDSSGNLNAAVFIEHNISKENRSFLLEQLNCSKENQGDTKREWRFWRKGANDSSRPKKSADHSESNGSSHGNNIHLVLRVCLSLLLLTALS,not soluble
19,MAHHHHHHMEEQESAENINMIKETIFGLPNSVILKIIHNNINLKNYKIRKEAVTTLGRCLSMFILYITDGALEHCEGEKRNTIFVRDILNSLDDSLFLDIYDELKRQIAIQEEIHKKESAKEAKSAAKGDTPSGADNAQGETNQVNKQDDLDILLQALE,soluble
